In the RNAGym collection of RNA variant scans (doi:10.7554/elife.90254):

B1: LINE1-full (parent)
chain: UACGUAGGUGGUUUUCCCCUGAUAGUGCUAAGGGGGCCUGGAAGUUUGGACUGGGCAGAGCUCAACACAGCGUGGCAAAGUGGCUGUGGCUAGACUGCCUCUCUGGAUUCCUCGUCACUCAGCAGGGCAUCUCUGAGAGAAAUGCC

Variants of: B1
Assay: self-cleavage, relative activity (ratio to wild type); higher = more cleavage; in vitro, sequencing; the parent is a self-cleaving ribozyme

Variant | self-cleavage
U87A A92G | 0.13
G88A A117G | 0.07
U87A A138G | 0.07
G88C G105A | 0.06
U91G G114C | 0.02
U91G C146U | 0.1
U91A U130C | 0.79
U87A U119C | 0.07
U87A U119A | 0.08
G88U A138G | 0.06
G88A U134C | 0.08
G88A U134A | 0.06
U85A U108C | 0.12
U85A U108A | 0.17
U85A U108G | 0.12
C90U A142G | 0.03
G89U U134G | 0.04
U87C U102A | 0.12
C90U U108G | 0.09
U91C C99U | 0.12
G86A U115C | 0.12
G88A G114A | 0.08
U87C G88A | 0.09
U91C C118U | 0.67

Variant | self-cleavage
U91A U134C | 0.45
U91A U134A | 0.18
U87C G137U | 0.27
U87C G137A | 0.5
U87C A94U | 0.05
U87C A94G | 0.14
U85G A138U | 0
U91C A92G | 0.1
U91C A92U | 0.23
G88A U91C | 0.05
U87A C131U | 0.08
U91C C120A | 0.74
C90U A138G | 0.04
U85A U115C | 0.13
U85A U115A | 0.09
G88A A107C | 0.03
U91A U112C | 0.58
U91A U108C | 0.73
G89C A136G | 0.06
U85C C146A | 0.48
U85C C146U | 0.27
U91C U109C | 0.61
G89C U130C | 0.09
U91G U143C | 0.07

Variant | self-cleavage
U87A U112C | 0.07
U87A A136G | 0.08
U87A C99U | 0.12
U87G A138G | 0.14
U87G A138U | 0.48
G89C | 0.04
G89A | 0.04
G89U | 0.01
U91C A117C | 1.24
U87G U108C | 0.16
U87C A141U | 0.2
U87C A129U | 0.15
U87C A129G | 0.07
U91C C146U | 0.53
U85C U115C | 0.21
U85C A136G | 0.2
U85C A136C | 0.24
U85C A136U | 0.24
U85C U132C | 0.24
U85C U132G | 0.28
U91C A129U | 0.82
U87G A140G | 0.19
U91C U132C | 0.83
U87A A117G | 0.09

Variant | self-cleavage
U87A C110A | 0.06
U87C C103A | 0.1
U87A G88C | 0.08
U91C G122A | 0.29
U87A A140U | 0.11
U87A U109A | 0.08
C90U A107G | 0.03
U87C C146A | 0.2
U87C U96A | 0.09
U85C A117C | 0.25
C90U U100A | 0.04
U91C A140C | 0.38
U91G U119C | 0
U91C G144A | 0.47
U91G A141G | 0.06
G88A C120U | 0.09
U91A U109C | 0.65
G86A A124G | 0.02
U87C G139A | 0.14
G88A A140U | 0.07
G89U C123G | 0.07
U91C U108C | 0.62
U85C U91C | 0.06
U91A A124U | 0.48

Variant | self-cleavage
G89A U104A | 0.01
G86A A94G | 0.06
G89A U102C | 0.05
U91C A124C | 0.69
U91C A141U | 0.51
U87A U91C | 0.07
U91C G125A | 0.32
U91A G126A | 0.43
G89U A117G | 0
C90U U143C | 0
U91C U119G | 1.53
U91C U119A | 0.48
U87C G144A | 0.24
G86A G127C | 0.09
U91C G97A | 0.05
C90A A117C | 0.05
U85C U143A | 0.19
U85C U143C | 0.1
U91C C145U | 0.43
U87C A142G | 0.25
G88A U96C | 0.02
U85C U102C | 0.12
U85C C99A | 0.16
U91A A140G | 0.45

Variant | self-cleavage
G86A A138G | 0.13
U91A U143A | 0.52
U91C G137A | 1.14
G89U A107G | 0.04
U87C C145A | 0.27
U85C C123G | 0.15
U87A G127A | 0.04
U87A G127U | 0.06
U91C G135A | 0.73
C90A A107G | 0.04
C90A A107U | 0.03
G88C A129G | 0.12
C90U U115C | 0.06
U85C A140U | 0.16
U87A U134A | 0.13
U85C A92U | 0
U85G U132C | 0.14
U87G U112C | 0.05
U87C C110A | 0.06
U87C U119C | 0.24
U87C U119A | 0.19
U87C U119G | 0
U85C A142G | 0.17
U85C A142U | 0.21

Variant | self-cleavage
U85A U96C | 0.09
G88A A121G | 0.06
C90A C99G | 0.02
G88A A138G | 0.06
G86A C118U | 0.09
U85C G105U | 0.14
U87G A141G | 0
U87G A124C | 0.32
U87G A107G | 0
G89A U109G | 0.04
U87C U134C | 0.11
U87C U134G | 0.31
U87G A129G | 0.27
U91C A121G | 1.29
G88C A140G | 0
U87C U109C | 0.27
U87C U109A | 0.15
U87A U96A | 0.07
U87A U96C | 0.12
G86A U87C | 0.04
U85C U109C | 0.17
U85C U109A | 0.12
G89U G125A | 0.05
